According to article PMC13061610:

Target: Dob3 (Nocardia ninae)
Experiment: SEC; Superdex 200, 20 mM HEPES pH 8.0, 10 mM MgCl2, 50 mM NaCl, 10% glycerol; compared with Bio-Rad gel filtration standards

Dob3 (enzyme) gave a stoichiometry N of 2.
